Experimental findings from PMC11169713 (2024) are described below.

As usually defined, the Kd is the concentration at which binding is half-saturated. Read a high Kd as lower affinity.

Among the targets are 56.a.09 UCA; MEDI8852 mature; 56.a.09 mature; MEDI8852 UCA.
Assay in all cases: SPR
Background: Surface plasmon resonance follows binding to a sensor surface in real time, without labels.

B1: 28H6E11 Fab (anti-idiotype antibody) (Fab, V domains shown)
VH: QVQLQQSGPEVVRPGVSVKISCKGSGYTFTDHAMHWVKQSHAKSLEWIGVFNTYNGDTNYNQKFEDKATMTIDKSSSTAYLELARLTSEDSAIYYCVRLGLLGFYALDYWGQGTSVTVSS
VL: DVLMTQTPLSLPVSLGDQASISCRSSQSIVHSNGNTYLEWYLQKPGQSPKLLIYKVSNRFSGVPDRFSGSGSGTDFTLKISRVEAEDLGVYYCFQGSHVPLTFGAGTKLELK
Regarding B1, the Kd with 56.a.09 UCA is 32.5 µM; in the test with MEDI8852 mature, 941 nM; with 56.a.09 mature, 496 nM; with MEDI8852 UCA, 0.943 nM.
